Measurements as given in the supplement of paper PMC9112550, “Optimization of the antimicrobial peptide Bac7 by deep mutational scanning” (BMC Biology, 2022).

test system: Escherichia coli TOP10; assay: shrunken log2 fold change of peptide-encoding DNA abundance (4.5 h post-induction vs induction); higher = less antimicrobial activity (less host growth inhibition); conditions: time post-induction: 4.5 h; library: site-saturation at positions 5, 18, 19, 20
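Also: peptides expressed intracellularly from a pBAD plasmid library in pooled LB shake-flask culture, induced with 0.3% L-arabinose, DNA abundance read by NGS, three biological replicates, DESeq2 with apeglm shrinkage.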

Point of comparison: RRIRYRPPRLPRPRPRPRYHPRP, “shrunken log2 fold change” value -0.922. Against it:
- RRIRWRPPRLPRPRPRPWIHPRP — higher, -0.192
- RRIRLRPPRLPRPRPRPNMVPRP — higher, -0.126
- RRIRIRPPRLPRPRPRPEGAPRP — higher, 0.27
- RRIRVRPPRLPRPRPRPARQPRP — higher, 0.365
- RRIRRRPPRLPRPRPRPFWNPRP — higher, 0.0866
- RRIRWRPPRLPRPRPRPVECPRP — higher, 0.194
- RRIRERPPRLPRPRPRPNELPRP — higher, -0.0227
- RRIRCRPPRLPRPRPRPMPSPRP — higher, 2.8
- RRIRIRPPRLPRPRPRPSVWPRP — higher, -0.221
- RRIRERPPRLPRPRPRPRVEPRP — higher, -0.182
- RRIRRRPPRLPRPRPRPTMHPRP — higher, 0.539
- RRIRTRPPRLPRPRPRPKVIPRP — higher, -0.503
- RRIRVRPPRLPRPRPRPRSEPRP — higher, -0.14
- RRIRRRPPRLPRPRPRPMIFPRP — higher, -0.241
- RRIRHRPPRLPRPRPRPCDRPRP — higher, -0.239
- RRIRRRPPRLPRPRPRPHSWPRP — higher, 0.333
- RRIRKRPPRLPRPRPRPCGLPRP — higher, 0.933
- RRIRARPPRLPRPRPRPTFPPRP — higher, 0.308
- RRIRSRPPRLPRPRPRPQRQPRP — higher, 0.116
- RRIRSRPPRLPRPRPRPAQEPRP — higher, 0.0123
- RRIRCRPPRLPRPRPRPLWGPRP — higher, -0.26
- RRIRLRPPRLPRPRPRPIQMPRP — higher, -0.0252
- RRIRSRPPRLPRPRPRPVTCPRP — higher, -0.299
- RRIRQRPPRLPRPRPRPCENPRP — higher, 0.0237
- RRIRSRPPRLPRPRPRPGMWPRP — higher, 0.0949
- RRIRERPPRLPRPRPRPTGYPRP — higher, -0.0056
- RRIRKRPPRLPRPRPRPLFTPRP — higher, 0.331
- RRIRVRPPRLPRPRPRPAKFPRP — higher, 0.42
- RRIRDRPPRLPRPRPRPGWYPRP — higher, 0.178
- RRIRTRPPRLPRPRPRPDLKPRP — higher, 0.156
- RRIRRRPPRLPRPRPRPPIWPRP — higher, 2.59
- RRIRERPPRLPRPRPRPHNIPRP — higher, -0.274
- RRIRKRPPRLPRPRPRPDILPRP — higher, 0.0039
- RRIRHRPPRLPRPRPRPQMTPRP — higher, -0.104
- RRIRARPPRLPRPRPRPEPPPRP — higher, 1.27
- RRIRFRPPRLPRPRPRPFPKPRP — higher, 0.00183
- RRIRDRPPRLPRPRPRPVTKPRP — higher, -0.173
- RRIRTRPPRLPRPRPRPCAMPRP — higher, -0.111
- RRIRGRPPRLPRPRPRPVFSPRP — higher, 0.0314
- RRIRKRPPRLPRPRPRPDTTPRP — higher, 0.0419
- RRIRMRPPRLPRPRPRPDRAPRP — higher, 0.861
- RRIRYRPPRLPRPRPRPIDEPRP — higher, -0.438
- RRIRHRPPRLPRPRPRPDAYPRP — higher, 0.027
- RRIRARPPRLPRPRPRPYWPPRP — higher, -0.00546
- RRIRCRPPRLPRPRPRPVMNPRP — higher, -0.0483
- RRIRARPPRLPRPRPRPTLQPRP — higher, 0.694
- RRIRARPPRLPRPRPRPPAYPRP — higher, 0.3
- RRIRLRPPRLPRPRPRPAFYPRP — higher, 0.903
- RRIRTRPPRLPRPRPRPTIIPRP — within 0.2 log units, -0.786
- RRIRSRPPRLPRPRPRPQMIPRP — higher, -0.292
- RRIRRRPPRLPRPRPRPGLEPRP — higher, 0.472
- RRIRLRPPRLPRPRPRPDVNPRP — higher, -0.137
- RRIRDRPPRLPRPRPRPWTVPRP — higher, -0.168
- RRIRVRPPRLPRPRPRPTEMPRP — higher, -0.0269
- RRIRIRPPRLPRPRPRPVNGPRP — higher, -0.0532
- RRIRFRPPRLPRPRPRPETTPRP — higher, 0.533
- RRIRQRPPRLPRPRPRPDGHPRP — higher, -0.0936
- RRIRCRPPRLPRPRPRPTRVPRP — higher, 0.547
- RRIRIRPPRLPRPRPRPWDVPRP — higher, -0.468
- RRIRMRPPRLPRPRPRPVWAPRP — higher, 0.466
- RRIRERPPRLPRPRPRPKFQPRP — higher, -0.268
- RRIRERPPRLPRPRPRPQHCPRP — higher, -0.23
- RRIRDRPPRLPRPRPRPLDSPRP — higher, 0.148
- RRIRLRPPRLPRPRPRPFANPRP — higher, 0.0335
- RRIRQRPPRLPRPRPRPHGSPRP — higher, -0.00277
- RRIRYRPPRLPRPRPRPVSIPRP — within 0.2 log units, -0.821
- RRIRWRPPRLPRPRPRPVYYPRP — higher, -0.412
- RRIRKRPPRLPRPRPRPDGAPRP — higher, 0.632
- RRIRERPPRLPRPRPRPNHSPRP — higher, -0.594
- RRIRSRPPRLPRPRPRPLANPRP — higher, 0.271
- RRIRWRPPRLPRPRPRPFGLPRP — higher, 0.0452
- RRIRERPPRLPRPRPRPFLVPRP — higher, -0.119
- RRIRDRPPRLPRPRPRPFYKPRP — higher, -0.421
- RRIRERPPRLPRPRPRPGQTPRP — higher, -0.0328
- RRIRWRPPRLPRPRPRPWFTPRP — higher, -0.0224
- RRIRHRPPRLPRPRPRPDEMPRP — higher, 0.0307
- RRIRPRPPRLPRPRPRPGTVPRP — higher, -0.182
- RRIRPRPPRLPRPRPRPLKFPRP — higher, -0.368
- RRIRGRPPRLPRPRPRPRYPPRP — higher, 0.232
- RRIRDRPPRLPRPRPRPHVLPRP — higher, 0.00542
- RRIRMRPPRLPRPRPRPMHWPRP — higher, -0.0799
- RRIRMRPPRLPRPRPRPHPTPRP — higher, 0.805
- RRIRCRPPRLPRPRPRPHTDPRP — higher, -0.246
- RRIRKRPPRLPRPRPRPVASPRP — higher, 0.533
- RRIRNRPPRLPRPRPRPIPMPRP — higher, -0.026
- RRIRTRPPRLPRPRPRPTCYPRP — higher, -0.0585
- RRIRLRPPRLPRPRPRPTFCPRP — higher, 0.0876
- RRIRQRPPRLPRPRPRPAKWPRP — higher, -0.0192
- RRIRIRPPRLPRPRPRPYWFPRP — higher, -0.112
- RRIRVRPPRLPRPRPRPSILPRP — higher, -0.312
- RRIRCRPPRLPRPRPRPFQFPRP — higher, 0.133
- RRIRPRPPRLPRPRPRPGDWPRP — higher, 0.432
- RRIRNRPPRLPRPRPRPWQFPRP — higher, -0.0175
- RRIRPRPPRLPRPRPRPIFQPRP — higher, 0.0149
- RRIRARPPRLPRPRPRPYKHPRP — within 0.2 log units, -0.881
- RRIRWRPPRLPRPRPRPGAAPRP — higher, 1.06
- RRIRMRPPRLPRPRPRPNDMPRP — higher, -0.204
- RRIRSRPPRLPRPRPRPSLVPRP — higher, -0.345
- RRIRTRPPRLPRPRPRPLIHPRP — higher, -0.552
- RRIRTRPPRLPRPRPRPWNGPRP — higher, -0.199
- RRIRARPPRLPRPRPRPQSYPRP — higher, -0.118
- RRIRSRPPRLPRPRPRPGTIPRP — higher, -0.263
- RRIRGRPPRLPRPRPRPAHTPRP — higher, 0.761
- RRIRGRPPRLPRPRPRPPTYPRP — higher, 0.206
- RRIRLRPPRLPRPRPRPEQPPRP — higher, 0.437
- RRIRERPPRLPRPRPRPHGHPRP — higher, 0.0257
- RRIRARPPRLPRPRPRPEGWPRP — higher, 1.38
- RRIRLRPPRLPRPRPRPWSPPRP — higher, -0.303
